Source: article PMC5052685, “The RNA-binding protein vigilin regulates VLDL secretion through modulation of Apob mRNA translation”

B1: Apob binding site WT (ssRNA)
RNA: GAUUUAACUCCACCUACUUCCAGGGC
B2: fetuin-A (Ahsg) binding site WT (ssRNA)
RNA: CUACCUCAAUAAUCAUCUUCUUCAGG

Biological target: VIGILIN (Homo sapiens, UniProt Q00341 1-1268)
Assay: EMSA; 10 nM 32P-RNA, 0-10 uM protein, 250 mM KCl, 5 mM MgCl2, 25 mM Tris-HCl pH 7.5, 10% glycerol, 1 mg/ml acetylated BSA, 1.5 uM yeast tRNA, 25 C, 5 min; 1.2% agarose gel, 1x TBE
Conditions: protein: recombinant; tags: His6 (expressed from pETM30-vigilin-His6); label: 5' 32P

VIGILIN, sequence (Q00341 whole entry): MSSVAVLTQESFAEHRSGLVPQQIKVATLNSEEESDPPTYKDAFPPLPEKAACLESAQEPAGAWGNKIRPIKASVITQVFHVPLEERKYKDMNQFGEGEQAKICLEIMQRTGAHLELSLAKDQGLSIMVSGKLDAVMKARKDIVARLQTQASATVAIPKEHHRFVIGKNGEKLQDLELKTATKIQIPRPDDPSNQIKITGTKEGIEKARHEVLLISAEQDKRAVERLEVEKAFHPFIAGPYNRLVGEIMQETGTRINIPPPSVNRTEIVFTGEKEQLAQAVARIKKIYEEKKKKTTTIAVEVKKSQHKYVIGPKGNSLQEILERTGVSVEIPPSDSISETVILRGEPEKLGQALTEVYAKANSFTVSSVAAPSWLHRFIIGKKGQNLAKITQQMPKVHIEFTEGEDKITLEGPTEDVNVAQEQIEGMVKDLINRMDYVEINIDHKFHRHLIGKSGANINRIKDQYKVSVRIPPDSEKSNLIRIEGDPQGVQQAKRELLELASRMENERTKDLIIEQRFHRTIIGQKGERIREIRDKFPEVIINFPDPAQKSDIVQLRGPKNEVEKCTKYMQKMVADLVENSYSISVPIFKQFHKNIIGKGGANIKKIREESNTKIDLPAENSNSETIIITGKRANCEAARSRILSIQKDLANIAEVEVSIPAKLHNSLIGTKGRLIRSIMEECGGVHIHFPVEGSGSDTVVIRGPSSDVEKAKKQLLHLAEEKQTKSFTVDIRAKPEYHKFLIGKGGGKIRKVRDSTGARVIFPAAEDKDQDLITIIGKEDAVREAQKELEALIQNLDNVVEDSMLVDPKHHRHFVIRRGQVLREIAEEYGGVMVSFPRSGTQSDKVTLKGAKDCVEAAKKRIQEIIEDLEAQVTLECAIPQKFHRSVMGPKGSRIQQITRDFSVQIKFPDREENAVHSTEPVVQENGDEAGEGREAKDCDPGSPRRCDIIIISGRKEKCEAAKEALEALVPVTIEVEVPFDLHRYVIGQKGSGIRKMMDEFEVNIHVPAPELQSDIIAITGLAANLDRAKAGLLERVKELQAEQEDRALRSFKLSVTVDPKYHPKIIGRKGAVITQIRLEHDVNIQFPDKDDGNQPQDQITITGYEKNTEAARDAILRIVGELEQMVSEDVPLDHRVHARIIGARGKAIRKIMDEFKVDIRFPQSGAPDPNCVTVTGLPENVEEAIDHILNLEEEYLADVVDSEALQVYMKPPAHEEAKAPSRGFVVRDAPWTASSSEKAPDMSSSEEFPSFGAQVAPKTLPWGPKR

| Binder | binding result |
| --- | --- |
| B1 | binds |
| B2 | binds |
